{
  "source": "the DeepSol protein solubility set",
  "data": [
    {"assay": "soluble on expression in E. coli; label from the status in PepcDB or PDB records", "values": [
      {"sequence": "MGSDKIHHHHHHMKKKIIHTLVYNYEIPVSLEEHLICLKPRSNSFQELSNFDLQIFPSPYSIFPLLSDNGDDIFKLLFTGSTNSLKIKTESDIETNIHPDLYQLKNDYDLSLPLKIESNDSLIGFIKGWFPNGQHDPAAIRIAQEALAGINNNVLDFLYHLIELIKDRVKYTPRHIGPAWTSGRTLSERVGSCRDLAILLMETCRCVGIPSRFVSGYQFMDQAPDKYELHAWTEVYIPGFGWRGFDPSGCGLINHNYVALASSSKSELVAPLRGSFVGPSNLKSELEWKIDIT", "soluble on expression in E. coli": "not soluble"},
      {"sequence": "MAHHHHHHSLSSSLANRNIYTVSRLNSEVRLLLENEMGIVWLVGEISNFSAPVSGHWYLTLKDSQAQVKCAMFKGNNRLVNFKPQNGQQVLVKARLSLYEPRGDYQIILESMQPEGDGRLQQQFEQLKMQLAAEGLFAQTRKKPLPENPRCVGIITSRTGAALHDILHVLKRRDPNLPVVIYPTLVQGEEAAIQIAQAIGRANTRAECDVLIVGRGGGSLEDLWCFNHEIVARTIAASEIPIISAVGHEIDVTIADFVADVRAPTPSAAAELVSRDHRHKQQALHQWQAKLASTMRHYLAQQETQFARLQHKLDKQHPQARLERQQQQLDELSLRLEQKMQQRLATQQQRWDRLSHKIELHSPIHLIRQQRFNLIQQEQRINQSIQRYLIQSRHQLALLSEKLDAVSPLATLARGYSVTRTTQGELVRQSAQVKPGDTLVTQLMDGEILSTVNSREG", "soluble on expression in E. coli": "not soluble"},
      {"sequence": "MKTVLVDWNLIPYAEAWQRQTEWFDTLVRAKAQGEAYENRIIMCEHPHVYTLGRSGKENNMLLNDDQLKAIQATLFHIDRGGDITYHGPGQLVCYPILNLEEFHLGLKEYVHLLEEAVIRVCASYGIEAGRLEKATGVWLEGSTPRARKICAIGVRSSHYVTMHGLALNVNTDLRYFSYIHPCGFIDKGVTSLRQELKHEVPMDEVKQRLECELGRLLNEKKQQIAQ", "soluble on expression in E. coli": "not soluble"},
      {"sequence": "MKVLVTGATSGLGRNAAQWLLEAGHEVYAIGRDQLAGEELRKLGATFIPLDLTMTTMEVCQQWLKTCDVVWHCAAKSAPWGNPQDFHQTNVVVTHKLAQAAGREGVKRFIHISSPAVYFDFRHHHDLPETYRASRFSSHYASSKYAAEQVLHECIAHYPDTTYVILRPRGLFGPHDRVIVPRLLQQLSRDRNVLRLPGGGQAQLDLTFVLNVVHAMMLATDNDGLRSGAIYNITNQEPQRLVTMLDSLLNQQLHINYTLQPVPYSLLSVVAAGMELVASMTQKEPLLTRYSVGAVYFDMTLNSERAINELGYRPRYSMAEGIVLAGEWLSAQRSGQHG", "soluble on expression in E. coli": "not soluble"},
      {"sequence": "SLQPEAPKPPQIGMANPASVYCQQKGGTLIPVQTAQGVSNNCKLPGGETIDEWALWRLDHPAGEK", "soluble on expression in E. coli": "soluble"},
      {"sequence": "VAADAYLVRRGQETKRGSGKGGASKGTPRGLSVIAGYPWFADWGRDAMIALSGLTLVTGRFEDARELLLTFLGQRRRGLIPNHFDESGQGAGYNTVARPLWLAVALERYARTTGDALFVRQALPMLRELLGSLVQGTDYGIGMDPADALLRAGEPGVQLTWMDVKIHDWVVTPRHGKPVEIQALWLAALGAELRLSQALGEPPRYAAVLERAHHSFKAQFWNHAADLTAAPTATLLGLGQLGSSLGGALSDALDGDFVLDDEPRRDTSSDALLTVGGRPGSGPVQSTTGASELGVGHRPGAAPAQPAVLADVIQPSGEQDLSVRPNAVIALALADTPVVDEQLDAVLAQTERELLTPVGLHTLSPHDPRYLGNYGGPQLLRDAAYHQGTVWPWPLASYVELLLSRGELNRARAALAGLTGHVWEAGIGHVSEVFSGDALTPGGCPFQAWSVAELLR", "soluble on expression in E. coli": "not soluble"},
      {"sequence": "GALGVVDEVHAGKEIGLQIYSLSQELYKGDVAANLRKVKDMGYSKLELAGYGKGAIGGVPMMDFKKMAEDAGLKIISSHVNPVDTSISDPFKAMIFKYSKEVTPKIMEYWKATAADHAKLGCKYLIQPMMPTITTHDEAKLVCDIFNQASDVIKAEGIATGFGYHNHNMEFNRVATKEQQEKVKGNPFAAFMKVGDQIYDLMLKDTDPSKVYFEMDVYWTVMGQNDPVEYMQKHPDRIKVLHIKDRAVFGQSGMMNFEMIFKQMYANGIKDYFVELEQMPDGRTQFAGVKDCADYLIKAPFVK", "soluble on expression in E. coli": "soluble"},
      {"sequence": "MGSDKIHHHHHHMDINLYSDRLKLRNLLSRDWDFFLRLHLDKDVNQYIRSIEPESDIVAKFEQRKAVWLFESGDWLTLVIERIDNSQAVGLIGFRCDDAQLRRAEVGYLIAPEQQGLGFASESLLAVTDWGALQFSMHKYIGICAHENTASRKVLEKVGFVLEGTLKQNNCVDGKWSDDCYMGLLTAQRT", "soluble on expression in E. coli": "not soluble"},
      {"sequence": "MLEEYEKKRDFNKTSEPPARGEEKNSDKPVFVVQRHDATNLHYDFRLEMDGVLKSWAVPKEPPKSPGTRRLAIETEDHPLGYADFEGEIPEGQYGAGRVEIWDRGTFELLKRNEKEIIITLHGEELEGDYVLIKTKYGKEDKGWLFFKKKTGLEHHHHHH", "soluble on expression in E. coli": "soluble"},
      {"sequence": "MAHHHHHHMSSSVKDILLEGSTCSTDMKLNDFLRSKLGGRGVVDTNEKVAMEMFVQDPETFIQNERLLRIITASPSYQELERELDEMKILLEAINKLHDEDVFSLEQWRGYEGKDTVTPLARGKINGVLTHVLREERRWAEERAVREKQVELTLTTTIEDVLFRGRVRVKDMKLNDFITMEMEGRGILRANRNVLLKEFFKDPTRYIHDAGVLNEIQASDAYLMAERAVRDEMDMEKDLRKLYKNGVSNLFGWSVASAEIRASVRDITKSFLDAALEEARKPTTTIAPIKMEGLYESVYNARWHHVVEVPGGEGTGMEVKKGRPPQQWTYKKVGYCLERDDGAEQYGAARLRLMVLASDKGRAVLVGGD", "soluble on expression in E. coli": "not soluble"},
      {"sequence": "MMGLLKRLLRVVRAEAHSVVEKLEDPIKITEEGLRELRKQLKEAMEALAQVKASQIRFEREARNEKERAKALVKKAESLLLQAQEGKISPEEAEKLAAELIQKAELHEKNARRLEEEAKRQREMAVKLQAKIDELKVQIAKYEAELKTLKARLATARAVKKVNKQIAKVDPSDTIAMLERMKEKVEEEETLAQAYEELAKQEVALDVESEAEKKLKEVESKQKLEELKKRLGLSLEHHHHHH", "soluble on expression in E. coli": "not soluble"},
      {"sequence": "MRKYSQRHIPVMVREVIEFLKPEDEKIILDCTVGEGGHSRAILEHCPGCRIIGIDVDSEVLRIAEEKLKEFSDRVSLFKVSYREADFLLKTLGIEKVDGILMDLGVSTYQLKGENRGFTFEREEPLDMRMDLESEVTAQKVLNELPEEELARIIFEYGEEKRFARRIARKIVENRPLNTTLDLVKAVREALPSYEIRRRKRHFATKTFQAIRIYVNRELENLKEFLKKAEDLLNPGGRIVVISFHSLEDRIVKETFRNSKKLRILTEKPVRPSEEEIRENPRARSGRLRAAERIEEGGD", "soluble on expression in E. coli": "soluble"},
      {"sequence": "MSNEYDEYIANHTDPVKAINWNVIPDEKDLEVWDRLTGNFWLPEKIPVSNDIQSWNKMTPQEQLATMRVFTGLTLLDTIQGTVGAISLLPDAETMHEEAVYTNIAFMESVHAKSYSNIFMTLASTPQINEAFRWSEENENLQRKAKIIMSYYNGDDPLKKKVASTLLESFLFYSGFYLPMYLSSRAKLTNTADIIRLIIRDESVHGYYIGYKYQQGVKKLSEAEQEEYKAYTFDLMYDLYENEIEYTEDIYDDLGWTEDVKRFLRYNANKALNNLGYEGLFPTDETKVSPAILSSLSPNADENHDFFSGSGSSYVIGKAEDTTDDDWDF", "soluble on expression in E. coli": "soluble"},
      {"sequence": "MGRKEEDDCSSWKKQTTNIRKTFIFMEVLGSGAFSEVFLVKQRLTGKLFALKCIKKSPAFRDSSLENEIAVLKKIKHENIVTLEDIYESTTHYYLVMQLVSGGELFDRILERGVYTEKDASLVIQQVLSAVKYLHENGIVHRDLKPENLLYLTPEENSKIMITDFGLSKMEQNGIMSTACGTPGYVAPEVLAQKPYSKAVDCWSIGVITYILLCGYPPFYEETESKLFEKIKEGYYEFESPFWDDISESAKDFICHLLEKDPNERYTCEKALSHPWIDGNTALHRDIYPSVSLQIQKNFAKSKWRQAFNAAAVVHHMRKLHMNLHSPGVRPEVENRPPETQASETSRPSSPEITITEAPVLDHSVALPALTQLPCQHGRRPTAPGGRSLNCLVNGSLHISSSLVPMHQGSLAAGPCGCCSSCLNIGSKGKSSYCSEPTLLKKANKKQNFKSEVMVPVKASGSSHCRAGQTGVCLIM", "soluble on expression in E. coli": "soluble"},
      {"sequence": "GPGSYDSNLYVASLPEWFTDADLHELFKRFGPIVSAKVMCHKGTHHCKGYGFVLFQRTDDAAVARSEMIGHVVGGNKIQVRRARSAASAPLTEAASAVSGTFTESSGSTRTSSSNVTPINYSVHVVPSQQPSFNPLYPATTALTPTYVLTNPSAPVQNATHTQPAMLVAVPNGRTMVQGAGDVMYMVLASSAQQMQSTSAIY", "soluble on expression in E. coli": "not soluble"},
      {"sequence": "MSPQDTCCPPDSWPALKVDYKPKGKLEDIGKGLKAYVVGNGPRAVIALNDVFGIESGHSKEICDAIADKGFTVVFPDVFRGKPLQVSDMSKLFDELPGWAKQFDYEPALRKDVVEVILPYLHDKLGFKSNDQIALAGFCWGAFMLFHLAGDTKLPGGPFACGVSFHPSVQIEGVFQRDPLQLIDRATCPQLLLPSAGEPDYMKEEGDAIKKLRAKPFGASCGVKTFPSMQHGWVNRGDRNDPQVVKEAQEALQLAVDFMMRHTKPKA", "soluble on expression in E. coli": "not soluble"},
      {"sequence": "MGHHHHHHSHMAKLLSDLSVDSARCKPGNNLTKSLLNIHDKQLQHDPAPAHTSIMSYLNKLETNYSFTHSEPLSTIKNEETIEPDKTYENVLSSRGPQNSNTRGMEEASAPGIISALSKQDSDEGSETMALIEDEHNLDNTIYIPFARSTPEKKSPLSKRLSPQPQIRAATTQLVSNSGLAVSGEENKLCTPVICSSSTKEAEDAPEKLSRASDMKDTQLLKKIKEAIGKIPAATKEPEEQTACHGPSGCLSNSLQVKGNTVCDGSVFTSDLMSDWSISSFSTFTSRDEQDFRNGLAALDANIARLQKSLRTGLLEK", "soluble on expression in E. coli": "not soluble"},
      {"sequence": "MQLYVVLCFLVLLGLSAGQMTFTDQWTKKRATLHKQLPVVTPEEPICPSDRVQAVFEQLDQLQKAQQRLTEYLASCAYPVEVPQKAEKM", "soluble on expression in E. coli": "not soluble"},
      {"sequence": "MSAAGDLRRRARLSRLVSFSASHRLHSPSLSDEENLRVFGKCNNPNGHGHNYKVVVTVHGEIDPVTGMVMNLTDLKEYMEEAIMKPLDHKNLDLDVPYFADAVSTTENVAVYIWESLQKLLPVGALYKVKVFETDNNIVVYKGE", "soluble on expression in E. coli": "soluble"},
      {"sequence": "MQLKGKTAIVTGSSRGLGKAIAWKLGNMGANIVLNGSPASTSLDATAEEFKAAGINVVVAKGDVKNPEDVENMVKTAMDAFGRIDILVNNAGITRDTLMLKMSEKDWDDVLNTNLKSAYLCTKAVSKIMLKQKSGKIINITSIAGIIGNAGQANYAASKAGLIGFTKSIAKEFAAKGIYCNAVAPGIIKTDMTDVLPDKVKEMYLNNIPLKRFGTPEEVANVVGFLASDDSNYITGQVINIDGGLVM", "soluble on expression in E. coli": "soluble"},
      {"sequence": "MGSDKIHHHHHHMFDVAARSGSFKQASQELGVTQSAVTRQIQTLEEQLEVRLFQRDNRVHSLTPVGLELAPQIEQIFEQLERTIERTRNLSDNTTTQLTVAISSERLRFWLAAKLADFHSLYPHIQLSFSRCNEYFINESAAEMASAIQHQSWDLAIGYGKVTDKHIQSIVLQKNQMLPVSAIKTNNSPFQLPWLINPENPDHQAMLKTYSQQLKSTRIIHCNDVQMSLDLSSAEQAVALIDSSLITPGLSNLKVYNDSAQPCQYPLSIYYRKRQRQPVALVAFIKWLQMIIS", "soluble on expression in E. coli": "not soluble"}
    ]}
  ]
}
